How the values were obtained:
streptavidin [1] = target: T1, streptavidin (UniProt P22629 37-163, limits assumed); assay: fluorescent binding curve, labeled SA in 50% blood serum, 4 h
T1 construct: It was used without a stated label in the sandwich assays; also called SA
Description: (§1) The binding function of rcSso7d.SA oligomer-PNIPAM thin films was measured using fluorescently-labeled monomeric streptavidin (mSA2) and fluorescently-labeled streptavidin (SA). Details for the expression, purification, and fluorescent labeling of mSA2 are provided below. Samples were prepared by serial dilution of SA or mSA2 in PBS (pH 7.4), human urine (diluted to 50% v/v in PBS, pH 7.4), or blood serum (obtained as the supernatant by centrifuging whole blood at 1500×g for 10 minutes, then diluted to 50% v/v in PBS, pH 7.4). 0.5 μL drops of solutions containing serially diluted fluorescent mSA2 and fluorescent SA samples in PBS (pH 7.4) were gently applied to the surface of each bioconjugate thin film. […] Fluorescence microscopy images were acquired at 4× magnification using a Cy5 filter set and exposure time of 5000 ms on an Olympus IX-81 inverted fluorescence microscope with an AxioCam HRC CCD camera. Fluorescent intensity was calculated using ImageJ software⁶⁷ by determining the average fluorescent signal in a rectangular area of the fluorescent image free of defects and occupying no less than half of the full sample application area.
(§2) To evaluate how the apparent size-based diffusion properties translated to biosensing capabilities, binding curves were measured using SA and mSA2 solutions in buffer. […]

streptavidin [2] = target: T1, streptavidin; assay: sandwich assay, SA in 50% blood serum, detection with biotin-HRP and TMB
Description: (§3) Each well was submerged in 1 mL of 1% BSA in Milli-Q water, and the 12-well plate was incubated at 37° C. for 30 minutes. The wells were rinsed twice by adding 2 mL of Milli-Q water and gently shaking the well plate at 70 rpm for 5 minutes. 1 mL of streptavidin diluted in PBS, urine, or blood serum (prepared as described in the Fluorescent Assays section) containing 0.1% BSA was then added to each well, and the well plate was shaken at 70 rpm for 4 hours at room temperature. Wells were rinsed twice with 2 mL of Milli-Q water then twice with 2 mL of 0.1% BSA in Milli-Q water by shaking at 70 rpm for 5 minutes. After rinsing, wells were submerged in 1 mL of 200 ng/mL biotin-HRP in Milli-Q water containing 0.1% BSA, and the well plate was shaken at 70 rpm for 1 hour at room temperature. Wells were then rinsed with water and 0.1% BSA as described previously. 1 mL of solution from a Pierce TMB substrate kit (Thermo Fisher Scientific) was added to each well, and the well plate was shaken vigorously at 125 rpm for 15 minutes at room temperature. 1 mL of 2M H2SO4 was added to each well, and the absorbance at 450 nm was read using a Tecan Infinite M200 PRO plate reader.
(§4) The general procedure for this proof-of-concept experiment is diagrammed in FIG. 28. Films were first exposed to SA solutions and rinsed to remove unbound analyte. Taking advantage of the strong interaction between SA and biotin, thin films were then submerged in a solution of biotinylated horseradish peroxidase (biotin-HRP). Bound SA was detected colorimetrically through the HRP-mediated oxidation of 3,3′,5,5′-tetramethylbenzidine (TMB). Attempts to perform this assay using mSA2 as the analyte were unsuccessful, even when run on an rcSso7d.SA monolayer.

streptavidin [3] = target: T1, streptavidin; assay: fluorescent binding curve, labeled SA in 50% urine, 4 h; quadratic fit
[4] = target: monomeric streptavidin variant mSA2; assay: apparent Kd (Kd,app); fluorescent binding curve, labeled mSA2 in 50% blood serum, 4 h; quadratic fit
[5] = target: monomeric streptavidin variant mSA2; assay: fluorescent binding assay, labeled mSA2 in 50% blood serum on thin film, 4 h exposure
Description: as §1, with “film. Films were incubated in a sealed chamber saturated with water vapor at room temperature to prevent to prevent drying of the applied fluorescent samples.” for “film.”
(§5) To evaluate how the apparent size-based diffusion properties translated to biosensing capabilities, binding curves were measured using SA and mSA2 solutions in buffer. Binding curves were fit with a quadratic model that is a function of three parameters: the average MFI per binding event a, the total concentration of binding sites [P]T, and the apparent dissociation constant K_{d,app} describing the binding equilibrium between analyte and binding sites within the thin film.

streptavidin [6] = target: T1, streptavidin; assay: apparent Kd (Kd,app); fluorescent binding curve, labeled SA in PBS, 8 h exposure; quadratic fit
streptavidin [7] = target: T1, streptavidin; assay: fluorescent binding curve, labeled SA in 50% blood serum, 4 h; quadratic fit
streptavidin [8] = target: T1, streptavidin; assay: apparent Kd (Kd,app); fluorescent binding curve, labeled SA in 50% urine, 4 h; quadratic fit
streptavidin [9] = target: T1, streptavidin; assay: sandwich assay, SA in PBS, detection with biotin-HRP and TMB, absorbance at 450 nm
Description: as §3
The general procedure for this proof-of-concept experiment is diagrammed in FIG. 28. […] Bound SA was detected colorimetrically through the HRP-mediated oxidation of 3,3′,5,5′-tetramethylbenzidine (TMB). […]

streptavidin [10] = target: T1, streptavidin; assay: apparent Kd (Kd,app); fluorescent binding curve, labeled SA in PBS, 4 h exposure; quadratic fit
[11] = target: monomeric streptavidin variant mSA2; assay: apparent Kd (Kd,app); fluorescent binding curve, labeled mSA2 in 50% urine, 4 h; quadratic fit
streptavidin [12] = target: T1, streptavidin; assay: apparent Kd (Kd,app); fluorescent binding curve, labeled SA in 50% blood serum, 4 h; quadratic fit
streptavidin [13] = target: T1, streptavidin; assay: sandwich assay: SA in 50% urine, biotin-HRP/TMB detection
Description: as §3, §4

BSA = target: T2, BSA (bovine, UniProt P02769); assay: fluorescence of Alexa Fluor 488-labeled BSA retained in a 144 nm 3xSP77.6k thin film after rinsing with water for 0-30 s
T2 construct: full protein, fluorescently labeled; non-specific retention control; also called BSA labeled with Alexa Fluor 488

[14] = target: monomeric streptavidin variant mSA2; assay: fluorescent binding assay, labeled mSA2 in 50% urine on thin film, 4 h exposure
Description: as §1, with “film. Films were incubated in a sealed chamber saturated with water vapor at room temperature to prevent to prevent drying of the applied fluorescent samples.” for “film.”
as §5

streptavidin [15] = target: T1, streptavidin; assay: apparent Kd (Kd,app); fluorescent binding curve, labeled SA in PBS, 0.5 h exposure; quadratic fit
streptavidin [16] = target: T1, streptavidin; assay: fluorescent binding curve fits, labeled SA in PBS, 30 min exposure
Description: as §1, §2

streptavidin [17] = target: T1, streptavidin; assay: sandwich assay: SA in 50% blood serum, biotin-HRP/TMB detection
Description: as §3, §4

[18] = target: monomeric streptavidin variant mSA2; assay: fluorescent binding curve, labeled mSA2 in 50% urine, 4 h; quadratic fit
[19] = target: monomeric streptavidin variant mSA2; assay: fluorescent binding curves, labeled mSA2 in 50% urine or 50% blood serum, 4 h
streptavidin [20] = target: T1, streptavidin; assay: fluorescent binding assay, labeled SA in 50% blood serum on thin film, 4 h exposure
streptavidin [21] = target: T1, streptavidin; assay: fluorescent binding curve, labeled SA in PBS, 4 h exposure; quadratic fit
streptavidin [22] = target: T1, streptavidin; assay: fluorescent binding assay, labeled SA in 50% urine on thin film, 4 h exposure
[23] = target: monomeric streptavidin variant mSA2; assay: fluorescent binding curve, labeled mSA2 in 50% blood serum, 4 h; quadratic fit
[24] = target: monomeric streptavidin variant mSA2; assay: apparent Kd (Kd,app); fluorescent binding curve, labeled mSA2 in PBS, 0.5 h exposure; quadratic fit
[25] = target: monomeric streptavidin variant mSA2; assay: fluorescent binding curve, labeled mSA2 in PBS, 4 h exposure; quadratic fit
Description: as §1, with “film. Films were incubated in a sealed chamber saturated with water vapor at room temperature to prevent to prevent drying of the applied fluorescent samples.” for “film.”
as §5

[26] = target: monomeric streptavidin variant mSA2; assay: apparent Kd (Kd,app); fluorescent binding curve, labeled mSA2 in PBS, 8 h exposure; quadratic fit
Description: as §1, §2

[27] = target: monomeric streptavidin variant mSA2; assay: fluorescent binding curve, labeled mSA2 in PBS, 4 h exposure
Description: as §1, §2

[28] = target: monomeric streptavidin variant mSA2; assay: fluorescent binding curve fits, labeled mSA2 in PBS
Description: The binding function of rcSso7d.SA oligomer-PNIPAM thin films was measured using fluorescently-labeled monomeric streptavidin (mSA2) and fluorescently-labeled streptavidin (SA). Details for the expression, purification, and fluorescent labeling of mSA2 are provided below. Samples were prepared by serial dilution of SA or mSA2 in PBS (pH 7.4), human urine (diluted to 50% v/v in PBS, pH 7.4), or blood serum (obtained as the supernatant by centrifuging whole blood at 1500×g for 10 minutes, then diluted to 50% v/v in PBS, pH 7.4). […] After 1 hour, films were thoroughly rinsed with water for 10 seconds (a time determined to be sufficient to remove unbound molecules from the film, see FIG. 33, dried under filtered airflow, and immediately analyzed for fluorescent signal. Fluorescence microscopy images were acquired at 4× magnification using a Cy5 filter set and exposure time of 5000 ms on an Olympus IX-81 inverted fluorescence microscope with an AxioCam HRC CCD camera. Fluorescent intensity was calculated using ImageJ software⁶⁷ by determining the average fluorescent signal in a rectangular area of the fluorescent image free of defects and occupying no less than half of the full sample application area.
as §2

[29] = target: monomeric streptavidin variant mSA2; assay: apparent Kd (Kd,app); fluorescent binding curve, labeled mSA2 in PBS, 4 h exposure; quadratic fit
Description: as §1, with “film. Films were incubated in a sealed chamber saturated with water vapor at room temperature to prevent to prevent drying of the applied fluorescent samples.” for “film.”
as §5

T1 sequence (P22629 37-163 limits assumed): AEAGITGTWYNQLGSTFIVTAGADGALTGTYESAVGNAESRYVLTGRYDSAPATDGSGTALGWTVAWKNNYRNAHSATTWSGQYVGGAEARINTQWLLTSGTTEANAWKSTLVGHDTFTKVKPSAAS
T2 sequence (P02769 25-607 limits assumed): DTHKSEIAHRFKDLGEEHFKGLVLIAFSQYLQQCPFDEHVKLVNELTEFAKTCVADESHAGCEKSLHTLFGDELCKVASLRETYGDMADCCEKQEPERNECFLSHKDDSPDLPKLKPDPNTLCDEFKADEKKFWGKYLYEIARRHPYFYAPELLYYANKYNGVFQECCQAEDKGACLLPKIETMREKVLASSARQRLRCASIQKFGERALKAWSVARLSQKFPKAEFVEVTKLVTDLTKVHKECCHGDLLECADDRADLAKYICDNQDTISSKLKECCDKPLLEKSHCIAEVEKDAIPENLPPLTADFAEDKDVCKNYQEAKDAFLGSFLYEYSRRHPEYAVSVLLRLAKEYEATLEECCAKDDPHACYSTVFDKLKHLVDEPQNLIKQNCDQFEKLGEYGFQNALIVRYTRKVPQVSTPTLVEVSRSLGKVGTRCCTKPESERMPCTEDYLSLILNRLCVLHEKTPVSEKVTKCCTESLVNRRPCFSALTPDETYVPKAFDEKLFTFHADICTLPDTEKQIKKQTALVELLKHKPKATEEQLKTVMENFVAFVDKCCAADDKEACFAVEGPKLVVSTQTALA

B1: 3xSP77.6k thin film (3x rcSso7d.SA-PNIPAM conjugate, PNIPAM Mn 77.6 kDa) (designed binder)
chain: MGSSHHHHHHSSGLVPRGSHMCATVKFTYQGEEKQVDISKIKIVARDGQYIDFKYDEGGGAYGYGWVSEKDAPKELLQMLEKQGGGGSGGGGSMATVKFTYQGEEKQVDISKIKIVARDGQYIDFKYDEGGGAYGYGWVSEKDAPKELLQMLEKQGGGGSGGGGSMATVKFTYQGEEKQVDISKIKIVARDGQYIDFKYDEGGGAYGYGWVSEKDAPKELLQMLEKQGG
modifications: maleimide end-functionalized PNIPAM (Mn 77.6 kDa) on the N-terminal Cys; film lightly crosslinked with glutaraldehyde
- reduction in LOD relative to rcSso7d.SA monolayer (streptavidin [1]): ~2 fold
- LOD relative to rcSso7d.SA monolayer (streptavidin [2]): 2 fold
- [P]T (total concentration of binding sites) (streptavidin [3]): 0.3 nM
- Kd [4]: 35 µM
- Limit of Detection [5]: 56 nM
- Kd (streptavidin [6]): 15 µM
- [P]T (total concentration of binding sites) (streptavidin [7]): 0.6 nM
- Kd (streptavidin [8]): 50 µM
- LOD relative to rcSso7d.SA monolayer (streptavidin [9]): ~2 fold
- Kd (streptavidin [10]): 17 µM
- Kd [11]: 31 µM
- Kd (streptavidin [12]): 40 µM
- LOD (streptavidin [13]): 33 nM
- binding result (BSA): no binding (tested: 10 µM)
- Limit of Detection [14]: 14 nM
- Kd (streptavidin [15]): 80 µM
- binding sites accessed relative to the 3×SP9.6k film (streptavidin [16]): ~4 fold
- LOD (streptavidin [17]): 85 nM
- [P]T (total concentration of binding sites) [18]: 15 nM
- LOD relative to rcSso7d.SA monolayer [19]: 2 orders of magnitude lower
- Limit of Detection (streptavidin [20]): 420 nM
- [P]T (total concentration of binding sites) (streptavidin [21]): 0.41 nM
- Limit of Detection (streptavidin [22]): 800 nM
- [P]T (total concentration of binding sites) [23]: 4.5 nM

B2: 3xSP56.1k thin film (3x rcSso7d.SA-PNIPAM conjugate, PNIPAM Mn 56.1 kDa) (designed binder)
chain: MGSSHHHHHHSSGLVPRGSHMCATVKFTYQGEEKQVDISKIKIVARDGQYIDFKYDEGGGAYGYGWVSEKDAPKELLQMLEKQGGGGSGGGGSMATVKFTYQGEEKQVDISKIKIVARDGQYIDFKYDEGGGAYGYGWVSEKDAPKELLQMLEKQGGGGSGGGGSMATVKFTYQGEEKQVDISKIKIVARDGQYIDFKYDEGGGAYGYGWVSEKDAPKELLQMLEKQGG
modifications: maleimide end-functionalized PNIPAM (Mn 56.1 kDa) on the N-terminal Cys; film lightly crosslinked with glutaraldehyde
- Kd [24]: 33 µM
- [P]T (total concentration of binding sites) [25]: 3.2 nM
- Kd [26]: 13 µM
- reduction in LOD relative to rcSso7d.SA monolayer [27]: ~4 fold
- accessible binding sites relative to the 3×SP9.6k film [28]: > 4 fold
- Kd [29]: 16 µM
